B1: RQ11+12 (ssRNA)
RNA: GGGGUUUCCAACCGGAAUUUGAGGGAUGCCUAGGCAUCCCCCGUGCGUCCCUUUACGAGGGAUUGUCGACUCUAGUCGACGUCUGGGCGAAAAAUGUACGAGAGGACCUUUUCGGUACAGACGGUACCUGAGGGUAUGCCUAGGCAUCCCCCGCGCCGGUUUCGGACCUCCAGUGCGUGUUACCGCACUGUCGACCC
B2: MNV:AP1 (PrP-Amp) (ssRNA)
RNA: GGGUUCAUAGCCUAUUCGGCUUCGCGCAUGGGAAUUUGAGGGACGAUGGGGAAGUGGGAGCGCGUUUUAAAGGACCUUUUUCCCUCGCGUAGCUAGCUACGCGAGGUGACCCCCCGAAGGGGGGUGCCCC

What was measured:
[1] = target: BSA (UniProt P02769 P02769:25-607); experiment: filter; background; 20 nM protein, 2 nM RNA, 10 ng/ul tRNA; settings: tags: Ambion; label: 32P internal
[2] = target: lysozyme (UniProt P00698 P00698:19-147); experiment: as above; settings: label: 32P internal
[3] = target: Tau23 (0N3R) (UniProt P10636-2 P10636-2:1-352); experiment: EMSA; 125 ng RNA, 1 ug Tau, protection buffer pH 7.4; settings: tags: 6-His; label: 32P internal
[4] = target: hrPrP90-231 (C-terminal fragment) (Homo sapiens, UniProt P04156 P04156:90-231); experiment: filter; settings: tags: GST fusion removed by thrombin; label: 32P internal
[5] = target: hrPrP23-144 (N-terminal fragment) (Homo sapiens, UniProt P04156 P04156:23-144); experiment: filter; 20 nM protein, Buffer B plus tRNA; settings: tags: GST fusion removed by thrombin; label: 32P internal
[6] = target: Tau441 (2N4R) (UniProt P10636-8 P10636-8:1-441); experiment: EMSA; 125 ng RNA, 1 ug Tau; affinity differs from Tau23; settings: tags: no His tag; rPeptide; label: 32P internal
[7] = target: T1, hrPrP23-231 (pEHPrP23-231) (Homo sapiens, UniProt P04156 P04156:23-231); experiment: EMSA; settings: tags: untagged; E. coli BL21(DE3) pLysS; label: 32P internal
[8] = target: T1, hrPrP23-231 (pEHPrP23-231); experiment: EMSA; 55 nM hrPrP, 10% BCS plus tRNA, urea gel; settings: tags: untagged; E. coli BL21(DE3) pLysS; label: 32P internal

Binder	binding result [1]	binding result [2]	binding result [3]	binding result [4]	binding result [5]	binding result [6]	binding result [7]	binding result [8]
B1	no binding	no binding	binds	no binding	binds	binds	binds	–
B2	–	–	–	–	–	–	–	binds
